Where “and” joins values, the source holds several entries; their conditions need not be identical. Equal values may be shown once.
Tests used:
[1] = molecular target: T1, Hynic-Ahx-PLG˜Hphe-OLEE-OH
T1 chain: XPLGXXLEE

[2] = molecular target: T2, NLys-PLG˜Hphe-YL-Ambh-Hynic
T2 chain: XPLGXYL

[3] = molecular target: T3, Ac-POG˜Hphe-L-Hynic
T3 chain: PXGXL

[4] = molecular target: T4, Ac-PLG˜L-Cha-Ahxh-Hynic
T4 chain: PLGLX

[5] = molecular target: T5, Ac-P-DLeu-G˜LL-Ahxh-Hynic (not fully specified)
T5 chain: PLGLL

[6] = molecular target: T6, Ac-NGlu-PLG˜Hphe-YL-Ambh-Hynic (not fully specified)
T6 chain: XPLGXYL

[7] = molecular target: T7, Ac-P-NMeArg-R˜LTA-Ambh-Hynic (not fully specified)
T7 chain: PRRLTA

[8] = molecular target: T8, Ac-PL-Sar˜LL-Ahxh-Ac[C14] (not fully specified)
T8 chain: PLXLL

[9] = molecular target: T9, Ac-PLG˜Ahp-YL-Ahxh-Ac[C14] (not fully specified)
T9 chain: PLGXYL

[10] = molecular target: T10, Ac-PLG˜LYL-Ahxh-Hynic (not fully specified)
T10 chain: PLGLYL

[11] = molecular target: T11, Ac-P-Cit-Aib˜Hphe-LA-Ahxh-Hynic (not fully specified)
T11 chain: PXXXLA

[12] = molecular target: T12, Ac-DAla-PRG˜Ile-LA-Ahxh-Hynic (not fully specified)
T12 chain: APRGILA

[13] = molecular target: T13, Ac-PLG˜LWA-Ahxh-Hynic (not fully specified)
T13 chain: PLGLWA

[14] = molecular target: T14, Ac-PLG˜Ahp-OL-Ahxh-Ac[C14] (not fully specified)
T14 chain: PLGXXL

[15] = molecular target: T15, Ac-P-Cit-G˜S(OBn)-LA-Ahxh-Hynic (not fully specified)
T15 chain: PXGSLA

[16] = molecular target: T16, Ac-PLG˜Hphe-RL-Ahxh-Hynic
T16 chain: PLGXRL

[17] = molecular target: T17, Ac-PLG˜LYT-Ahxh-Ac[C14] (not fully specified)
T17 chain: PLGLYT

[18] = molecular target: T18, Ac-PLG˜Hphe-K(Me)2-L-Ahxh-Hynic (not fully specified)
T18 chain: PLGXKL

[19] = molecular target: T19, Ac-Csa-PLG˜Hphe-YL-Ambh-Hynic (not fully specified)
T19 chain: XPLGXYL

[20] = molecular target: T20, Ac-P-Cit-Abu˜LTA-Ahxh-Hynic (not fully specified)
T20 chain: PXXLTA

[21] = molecular target: T21, Ac-P-Cit-Hse˜Hphe-SA-Ahxh-Hynic (not fully specified)
T21 chain: PXXXSA

[22] = molecular target: T22, Ac-PL-NLys-LL-NHNH-Ac[C14]
T22 chain: PLXLL

[23] = molecular target: T23, Ac-PLG˜L-Cha-Ahxh-Ac[C14] (not fully specified)
T23 chain: PLGLX

[24] = molecular target: T24, Ac-PL-NLys˜Hphe-RL-Ahxh-Ac[C14] (not fully specified)
T24 chain: PLXXRL

[25] = molecular target: T25, Ac-PLG˜LL-Ahxh-Hynic
T25 chain: PLGLL

[26] = molecular target: T26, Ac-POG˜Hphe-LA-Ahxh-Hynic
T26 chain: PXGXLA

[27] = molecular target: T27, Ac-PLG˜Hphe-OLA-Ahxh-Hynic
T27 chain: PLGXXLA

[28] = molecular target: T28, Ac-PRR˜LTA-Ahxh-Hynic
T28 chain: PRRLTA

B1: human MMP-9 (protein)
chain: MRTPRCGVPDLGRFQTFEGDLKWHHHNITYWIQNYSEDLPRAVIDDAFARAFALWSAVTPLTFTRVYSRDADIVIQFGVAEHGDGYPFDGKDGLLAHAFPPGPGIQGDAHFDDDELWSLGKGVVVPTRFGNADGAACHFPFIFEGRSYSACTTDGRSDGLPWCSTTANYDTDDRFGFCPSERLYTQDGNADGKPCQFPFIFQGQSYSACTTDGRSDGYRWCATTANYDRDKLFGFCPTRADSTVMGGNSAGELCVFPFTFLGKEYSTCTSEGRGDGRLWCATTSNFDSDKKWGFCPDQGYSLFLVAAHEFGHALGLDHSSVPEALMYPMYRFTEGPPLHKDDVNGIRHLYGPRPEPEPRPPTTTTPQPTAPPTVCPTGPPTVHPSERPTAGPTGPPSAGPTGPPTAGPSTATTVPLSPVDDACNVNIFDAIAEIGNQLYLFKDGKYWRFSEGRGSRPQGPFLIADKWPALPRKLDSVFEERLSKKLFFFSGRQVWVYTGASVLGPRRLDKLGLGADVAQVTGALRSGRGKMLLFSGRRLWRFDVKAQMVDPRSASEVDRMFPGVPLDTHDVFQYREKAYFCQDRFYWRVSSRSELNQVDQVGYVTYDILQCPED
With B1 the Kcat/Km [1] was 2980 M⁻¹ s⁻¹ and 1670 M⁻¹ s⁻¹, the Kcat/Km [2] was 264000 M⁻¹ s⁻¹ and the Kcat/Km [3] was 4450 M⁻¹ s⁻¹. For the same protein, the Kcat/Km [4] was 147000 M⁻¹ s⁻¹, the Kcat/Km [5] was 438 M⁻¹ s⁻¹ and the Kcat/Km [6] was > 100000 M⁻¹ s⁻¹. For the same protein, the Kcat/Km [7] was 792 M⁻¹ s⁻¹, the Kcat/Km [8] was 143000 M⁻¹ s⁻¹ and the Kcat/Km [9] was 60400 M⁻¹ s⁻¹. It also gave a Kcat/Km [10] of 95000 M⁻¹ s⁻¹, a Kcat/Km [11] of 0 M⁻¹ s⁻¹ and a Kcat/Km [12] of 61700 M⁻¹ s⁻¹. For the same protein, the Kcat/Km [13] was > 500000 M⁻¹ s⁻¹, the Kcat/Km [14] was 9340 M⁻¹ s⁻¹ and the Kcat/Km [15] was > 250000 M⁻¹ s⁻¹. The Kcat/Km [16] was 168000 M⁻¹ s⁻¹, the Kcat/Km [17] was > 500000 M⁻¹ s⁻¹ and the Kcat/Km [18] was 55000 M⁻¹ s⁻¹. The Kcat/Km [19] was 41600 M⁻¹ s⁻¹, the Kcat/Km [20] was 77800 M⁻¹ s⁻¹ and the Kcat/Km [21] was 38300 M⁻¹ s⁻¹. It also gave a Kcat/Km [22] of 138000 M⁻¹ s⁻¹, a Kcat/Km [23] of 475000 M⁻¹ s⁻¹ and a Kcat/Km [24] of 114000 M⁻¹ s⁻¹. The Kcat/Km [25] was 218000 M⁻¹ s⁻¹, the Kcat/Km [26] was > 500000 M⁻¹ s⁻¹ and the Kcat/Km [27] was 14100 M⁻¹ s⁻¹. For the same protein, the Kcat/Km [28] was 33500 M⁻¹ s⁻¹.

B2: MMP-2 (protein)
chain: APSPIIKFPGDVAPKTDKELAVQYLNTFYGCPKESCNLFVLKDTLKKMQKFFGLPQTGDLDQNTIETMRKPRCGNPDVANYNFFPRKPKWDKNQITYRIIGYTPDLDPETVDDAFARAFQVWSDVTPLRFSRIHDGEADIMINFGRWEHGDGYPFDGKDGLLAHAFAPGTGVGGDSHFDDDELWTLGEGQVVRVKYGNADGEYCKFPFLFNGKEYNSCTDTGRSDGFLWCSTTYNFEKDGKYGFCPHEALFTMGGNAEGQPCKFPFRFQGTSYDSCTTEGRTDGYRWCGTTEDYDRDKKYGFCPETAMSTVGGNSEGAPCVFPFTFLGNKYESCTSAGRSDGKMWCATTANYDDDRKWGFCPDQGYSLFLVAAHEFGHAMGLEHSQDPGALMAPIYTYTKNFRLSQDDIKGIQELYGASPDIDLGTGPTPTLGPVTPEICKQDIVFDGIAQIRGEIFFFKDRFIWRTVTPRDKPMGPLLVATFWPELPEKIDAVYEAPQEEKAVFFAGNEYWIYSASTLERGYPKPLTSLGLPPDVQRVDAAFNWSKNKKTYIFAGDKFWRYNEVKKKMDPGFPKLIADAWNAIPDNLDAVVDLQGGGHSYFFKGAYYLKLENQSLKSVKFGSIKSDWLGC
B2 was tested, and the Kcat/Km [1] was 83900 M⁻¹ s⁻¹ and 42500 M⁻¹ s⁻¹, the Kcat/Km [2] was 121000 M⁻¹ s⁻¹ and the Kcat/Km [3] was 63700 M⁻¹ s⁻¹. For the same protein, the Kcat/Km [4] was 120000 M⁻¹ s⁻¹, the Kcat/Km [5] was 5010 M⁻¹ s⁻¹ and the Kcat/Km [7] was 879 M⁻¹ s⁻¹. The Kcat/Km [8] was 111000 M⁻¹ s⁻¹, the Kcat/Km [9] was 38700 M⁻¹ s⁻¹ and the Kcat/Km [10] was 65300 M⁻¹ s⁻¹. The Kcat/Km [11] was 275 M⁻¹ s⁻¹, the Kcat/Km [12] was 130000 M⁻¹ s⁻¹ and the Kcat/Km [13] was > 500000 M⁻¹ s⁻¹. For the same protein, the Kcat/Km [14] was 4970 M⁻¹ s⁻¹, the Kcat/Km [15] was > 250000 M⁻¹ s⁻¹ and the Kcat/Km [16] was 242000 M⁻¹ s⁻¹. The Kcat/Km [17] was 413000 M⁻¹ s⁻¹, the Kcat/Km [18] was 72000 M⁻¹ s⁻¹ and the Kcat/Km [19] was 19500 M⁻¹ s⁻¹. It also gave a Kcat/Km [20] of 55400 M⁻¹ s⁻¹, a Kcat/Km [21] of 91400 M⁻¹ s⁻¹ and a Kcat/Km [22] of 134000 M⁻¹ s⁻¹. For the same protein, the Kcat/Km [23] was 359000 M⁻¹ s⁻¹, the Kcat/Km [24] was 102000 M⁻¹ s⁻¹ and the Kcat/Km [25] was > 250000 M⁻¹ s⁻¹. The Kcat/Km [26] was > 500000 M⁻¹ s⁻¹, the Kcat/Km [27] was 29500 M⁻¹ s⁻¹ and the Kcat/Km [28] was 10100 M⁻¹ s⁻¹.

— patent US20050106100
